Assay results from doi:10.1101/2025.07.24.666634 (bioRxiv, 2025).

Target: the molecule itself
Assay: cryo-EM structure; blot-and-plunge, dGTPase 3 mg/mL on UltrAuFoil R1.2/1.3 Au300; single-particle analysis, D3 symmetry

B1: Escherichia coli dGTP Triphosphohydrolase (enzyme, UniProt P15723 1-505, looked up)
chain: MAQIDFRKKINWHRRYRSPQGVKTEHEILRIFESDRGRIINSPAIRRLQQKTQVFPLERNAAVRTRLTHSMEVQQVGRYIAKEILSRLKELKLLEAYGLDELTGPFESIVEMSCLMHDIGNPPFGHFGEAAINDWFRQRLHPEDAESQPLTDDRCSVAALRLRDGEEPLNELRRKIRQDLCHFEGNAQGIRLVHTLMRMNLTWAQVGGILKYTRPAWWRGETPETHHYLMKKPGYYLSEEAYIARLRKELNLALYSRFPLTWIMEAADDISYCVADLEDAVEKRIFTVEQLYHHLHEAWGQHEKGSLFSLVVENAWEKSRSNSLSRSTEDQFFMYLRVNTLNKLVPYAAQRFIDNLPAIFAGTFNHALLEDASECSDLLKLYKNVAVKHVFSHPDVERLELQGYRVISGLLEIYRPLLSLSLSDFTELVEKERVKRFPIESRLFHKLSTRHRLAYVEAVSKLPSDSPEFPLWEYYYRCRLLQDYISGMTDLYAWDEYRRLMAVEQ
notes: also called dGTPase; E. coli dGTPase
binding result: binds
